Test results from the supplement of paper PMC10567573.

B1: BCL2L13 (parent)
chain: YIIQQGGWGTVFSLESEEEEYPGI

Variants of: B1
Test: protein stability index of a GFP-peptide fusion (GPS, HEK-293T) (PSI 1-6); higher = more stable
Conditions: c terminus: a fixed tail appended
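Also: lentivirally expressed fusions sorted by FACS into six bins by GFP to DsRed ratio, PSI derived from sequencing read proportions per bin multiplied by bin number.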

Variant | protein stability index
YIIQQGGWGTRFSLESEEEEYPGI [V11R] | 1.91
YIIQQGGWKTVFSLESEEEEYPGI [G9K] | 1.7
YDIQQGGWGTVFSLESEEEEYPGI [I2D] | 3.9
YIIQQGGWGTVFSKESEEEEYPGI [L14K] | 1.5
YIIQQGGWGTVFSLESEEEENPGI [Y21N] | 1.74
YIIQQGGWATVFSLESEEEEYPGI [G9A] | 1.62
YIIQQGLWGTVFSLESEEEEYPGI [G7L] | 1.82
YIIQQGGWGTVKSLESEEEEYPGI [F12K] | 2.39
YIIQQGGQGTVFSLESEEEEYPGI [W8Q] | 3.93
YIIQQGGWGTVFSLESEEEEYPGT [I24T] | 1.1
YIIQQGGWGTVFSLESEEEEYPGG [I24G] | 2.85
YIIQQGGWGTVFSLESEQEEYPGI [E18Q] | 2.13
YIIQEGGWGTVFSLESEEEEYPGI [Q5E] | 1.33
YIIQQGGWETVFSLESEEEEYPGI [G9E] | 2.65
YIIQQGGWGSVFSLESEEEEYPGI [T10S] | 2.34
YIIQQGGWGTVFSLESEETEYPGI [E19T] | 2.34
YIIQQGGWGTVFSLESEEENYPGI [E20N] | 2.17
YIIQQGDWGTVFSLESEEEEYPGI [G7D] | 1.87
YIIQQGGWGTVFHLESEEEEYPGI [S13H] | 1.43
YIIQQGGWGTVFSLESEEHEYPGI [E19H] | 2.29
YIIQQGGWGTVFSLGSEEEEYPGI [E15G] | 1.82
YIIQQGGWGTVFSLESIEEEYPGI [E17I] | 1.76
YIIQQGGWGTKFSLESEEEEYPGI [V11K] | 1.64
YIIQQGGWGTVFELESEEEEYPGI [S13E] | 1.33

Variant | protein stability index
YIIQQGGWGTVFSLESCEEEYPGI [E17C] | 2.77
YIIQQGGWGTVFSLESNEEEYPGI [E17N] | 2.31
YIIQQGGWGTVFSSESEEEEYPGI [L14S] | 2.23
YIIQQGGWGEVFSLESEEEEYPGI [T10E] | 1.17
YIIQQGCWGTVFSLESEEEEYPGI [G7C] | 1.72
YIIQQGGWGTVFSLESEEQEYPGI [E19Q] | 3.34
YIIQQGGWGTVFSLESEEEEYPWI [G23W] | 1.93
YIIQQGGWGTVFSLESEEEMYPGI [E20M] | 1.31
YIIQQGGWGTVFSHESEEEEYPGI [L14H] | 1
YIIQQGEWGTVFSLESEEEEYPGI [G7E] | 1.74
YIIQQHGWGTVFSLESEEEEYPGI [G6H] | 1.48
YIIWQGGWGTVFSLESEEEEYPGI [Q4W] | 2.88
YIIQQGGWGTVSSLESEEEEYPGI [F12S] | 2.03
YIIQQGGYGTVFSLESEEEEYPGI [W8Y] | 2.84
YIIQQGGWGTVFSLESEEEEYQGI [P22Q] | 1.47
YIIQQGGWGTVFSLESEEEEYPGD [I24D] | 1.54
YIIQQGGWGTVFSLESEEEEYNGI [P22N] | 1.42
YIIQQGGSGTVFSLESEEEEYPGI [W8S] | 3.17
YIIQQGGWGTVFSLEVEEEEYPGI [S16V] | 1.65
YIIQQGGWGTVFSLESEEEEHPGI [Y21H] | 2.53
YIIQQGGWGTVFSLESEEEDYPGI [E20D] | 1.71
YIIQQGGWGTVFSEESEEEEYPGI [L14E] | 2.57
YIIQQGGWGTVFSLESEEEEYPAI [G23A] | 1.21
KIIQQGGWGTVFSLESEEEEYPGI [Y1K] | 3.39

Variant | protein stability index
YIINQGGWGTVFSLESEEEEYPGI [Q4N] | 1.58
YIIQQPGWGTVFSLESEEEEYPGI [G6P] | 2.12
TIIQQGGWGTVFSLESEEEEYPGI [Y1T] | 3.75
YIIQQGGWGTVFPLESEEEEYPGI [S13P] | 1.38
YIIQQGGWGTVFSLESEEEERPGI [Y21R] | 1.75
YIIQQGGWGTVFSLESEEEEYPEI [G23E] | 2.43
YIIQQGGWGNVFSLESEEEEYPGI [T10N] | 2.35
YIIQQGGWGTVFSLESEEEEYPDI [G23D] | 2.7
YIIQQGGWGTVFSWESEEEEYPGI [L14W] | 1.06
YIAQQGGWGTVFSLESEEEEYPGI [I3A] | 1.58
YIIQQGGWGTVFSLLSEEEEYPGI [E15L] | 2.57
FIIQQGGWGTVFSLESEEEEYPGI [Y1F] | 1.18
YIIQQGGWGTVFSLEFEEEEYPGI [S16F] | 2.94
YIIQGGGWGTVFSLESEEEEYPGI [Q5G] | 1.69
YIIQQGGWGTVFSLESEESEYPGI [E19S] | 2.39
YIIQQGGWGTVFSLESEEEEYPGA [I24A] | 1.39
YIIQQGGWGTVFSPESEEEEYPGI [L14P] | 1.87
YIIQQGGWGRVFSLESEEEEYPGI [T10R] | 1.6
YIIQQTGWGTVFSLESEEEEYPGI [G6T] | 2.31
YIIQQGGWGTVFSLESEEEEYPGC [I24C] | 1.34
YIIQQGGWGTVFSLESEEEEDPGI [Y21D] | 2.22
YIIQQGGWGTVFVLESEEEEYPGI [S13V] | 2.28
YIIQQGGWGTVFSLESHEEEYPGI [E17H] | 2.65
YIIQMGGWGTVFSLESEEEEYPGI [Q5M] | 1.67

Variant | protein stability index
YIIQQGGWGTVFSLESWEEEYPGI [E17W] | 2.52
YIIQQGGWGTVFSLSSEEEEYPGI [E15S] | 2.81
YIIQQGGWGTVFSLESEEEEGPGI [Y21G] | 2.02
PIIQQGGWGTVFSLESEEEEYPGI [Y1P] | 4.31
YIIQQGGWRTVFSLESEEEEYPGI [G9R] | 1.06
YIIQQGGWGTVESLESEEEEYPGI [F12E] | 2.66
YIIQQGGWGTVFSLESEEEEYEGI [P22E] | 2.22
YIIQQGGWGTVFSLESEEEEYPRI [G23R] | 1.28
IIIQQGGWGTVFSLESEEEEYPGI [Y1I] | 1.6
YIIQQGGWGTVFSDESEEEEYPGI [L14D] | 2.21
YIIQQGGWGTVFFLESEEEEYPGI [S13F] | 2.46
YIIQQGGWITVFSLESEEEEYPGI [G9I] | 3.4
YIIQQGGWGTVFSLESEEEEYHGI [P22H] | 1.7
LIIQQGGWGTVFSLESEEEEYPGI [Y1L] | 1.87
YLIQQGGWGTVFSLESEEEEYPGI [I2L] | 2.76
YIIQQGGWGTVFSLESEEEEYMGI [P22M] | 1.42
YIIQQGGWPTVFSLESEEEEYPGI [G9P] | 1.09
AIIQQGGWGTVFSLESEEEEYPGI [Y1A] | 3.38
YIIQQGGWGTVFSLPSEEEEYPGI [E15P] | 2.02
YIIQQGGWGTVFSLESEEEEYPHI [G23H] | 1
YIIQQGGWGTVFSLEDEEEEYPGI [S16D] | 1.76
YIIQQGGWGTVMSLESEEEEYPGI [F12M] | 2.98
